# According to article PMC4278837, “A Cyclic Peptidic Serine Protease Inhibitor: Increasing Affinity by Increasing Peptide Flexibility” (PLoS ONE, 2014):
# Bridge positions count the residues as written; N and C are the ends. Square brackets hold non-standard residues; d marks the D form. Ends that are not written are not given here. Ala(1-amidino-4-piperidyl) = N=C(N)N1CCC(C[C@H](N)C(=O)O)CC1; Phe(4-guanidino) = N=C(N)Nc1ccc(C[C@H](N)C(=O)O)cc1
# B1: mupain-1 (peptide)
# peptide: CPAYSRYLDC
# modifications: disulfide 1-10 (inferred)
# notes: Synthesised on a resin with Rink amide linker; source: synthetic peptide (solid-phase synthesis, HPLC purified)
# B2: Mupain-1 D9A (peptide)
# peptide: CPAYSRYLAC
# modifications: disulfide 1-10 (inferred)
# notes: mupain-1 with D9A; Rink amide linker resin; C-terminal amide surmised; source: synthetic peptide (solid-phase synthesis, HPLC purified)
# Molecular target: T1, murine urokinase-type plasminogen activator (muPA) wild type (murine, UniProt P06869 21-433)
# T1 construct: cDNA encoding full length muPA; Two-chain form after plasmin; also called muPA wt; muPA-wt; source: HEK293 6E, transfected; treated with plasmin
# Assay: SPR; Biacore T200; uPA variant amine-coupled to a CM5 chip (about 500 RU); peptides injected in HBS with 0.1% BSA, 30 µL/min, 25°C, pH 7.4; 1:1 kinetic fit; KD = koff/kon
# Conditions: both partners purified
# T1 sequence (P06869 21-433): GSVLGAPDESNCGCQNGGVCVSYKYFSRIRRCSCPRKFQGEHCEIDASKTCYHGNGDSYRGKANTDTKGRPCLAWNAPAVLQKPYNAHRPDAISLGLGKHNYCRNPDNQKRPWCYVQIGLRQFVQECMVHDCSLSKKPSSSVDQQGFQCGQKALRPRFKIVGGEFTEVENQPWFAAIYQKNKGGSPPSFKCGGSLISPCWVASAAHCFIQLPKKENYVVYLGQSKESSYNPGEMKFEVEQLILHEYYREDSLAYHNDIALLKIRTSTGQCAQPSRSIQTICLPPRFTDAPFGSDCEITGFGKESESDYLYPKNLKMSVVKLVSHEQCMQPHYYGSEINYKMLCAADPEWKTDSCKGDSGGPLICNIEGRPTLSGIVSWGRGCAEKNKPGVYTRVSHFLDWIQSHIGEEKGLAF
Binder,Kd,koff,kon
CPAYS[Phe(4-guanidino)]YLDC (disulfide 1-10) [mupain-1-12],138 nM,0.0192 s⁻¹,156000 M⁻¹ s⁻¹
CPAYS[Ala(1-amidino-4-piperidyl)]YLAC (disulfide 1-10; not fully specified) [Mupain-1-16 D9A],21.3 nM,0.0122 s⁻¹,579000 M⁻¹ s⁻¹
CPAYS[Ala(1-amidino-4-piperidyl)]YLDC (disulfide 1-10; not fully specified) [mupain-1-16],89.4 nM,0.00671 s⁻¹,89800 M⁻¹ s⁻¹
B1,398 nM,0.0364 s⁻¹,91400 M⁻¹ s⁻¹
B2,417 nM,0.0401 s⁻¹,98500 M⁻¹ s⁻¹

# Molecular target: T2, huPA-H99Y (full length human urokinase-type plasminogen activator with H99Y) (human)
# Assay: as above
# Conditions: both partners purified
Binder,Kd,koff,kon
CPAYS[Phe(4-guanidino)]YLDC (disulfide 1-10) [mupain-1-12],1210 nM,0.246 s⁻¹,206000 M⁻¹ s⁻¹
CPAYS[Ala(1-amidino-4-piperidyl)]YLAC (disulfide 1-10; not fully specified) [Mupain-1-16 D9A],71.8 nM,0.0333 s⁻¹,465000 M⁻¹ s⁻¹
CPAYS[Ala(1-amidino-4-piperidyl)]YLDC (disulfide 1-10; not fully specified) [mupain-1-16],844 nM,0.0893 s⁻¹,107000 M⁻¹ s⁻¹

# Molecular target: T3, muPA-S190A (murine)
# T3 construct: site directed mutant of full length muPA; numbers count on: chymotrypsin numbering; Two-chain form after plasmin; source: HEK293 6E, transfected; treated with plasmin
# Assay: enzyme inhibition (steady state, chromogenic substrate S-2444); about 2 nM enzyme (purified or conditioned medium of transfected cells) pre-incubated 15 min with varied peptide in HBS (10 mM HEPES pH 7.4, 140 mM NaCl) with 0.1% BSA at 37°C; substrate about KM; fit for competitive inhibition; highest peptide concentration 400 µM
# Conditions: not given
row,Binder,Ki
1,CPAYS[Phe(4-guanidino)]YLDC (disulfide 1-10) [mupain-1-12],2300 nM
2,CPAYS[Ala(1-amidino-4-piperidyl)]YLAC (disulfide 1-10; not fully specified) [Mupain-1-16 D9A],529 nM
3,CPAYS[Ala(1-amidino-4-piperidyl)]YLDC (disulfide 1-10; not fully specified) [mupain-1-16],352 nM

# Molecular target: T4, muPA-V213T (murine)
# T4 construct: site directed mutant of full length muPA; numbers count on: chymotrypsin numbering; Two-chain form after plasmin; source: HEK293 6E, transfected; treated with plasmin
# Assay: as above
# Conditions: not given
row,Binder,Ki
1,CPAYS[Phe(4-guanidino)]YLDC (disulfide 1-10) [mupain-1-12],86 nM
2,CPAYS[Ala(1-amidino-4-piperidyl)]YLAC (disulfide 1-10; not fully specified) [Mupain-1-16 D9A],14 nM
3,CPAYS[Ala(1-amidino-4-piperidyl)]YLDC (disulfide 1-10; not fully specified) [mupain-1-16],13 nM

# Molecular target: huPA-H99Y-R35A (human)
# Assay: as above
# Conditions: not given
row,Binder,Ki
1,CPAYS[Phe(4-guanidino)]YLDC (disulfide 1-10) [mupain-1-12],3260 nM
2,CPAYS[Ala(1-amidino-4-piperidyl)]YLAC (disulfide 1-10; not fully specified) [Mupain-1-16 D9A],174 nM
3,CPAYS[Ala(1-amidino-4-piperidyl)]YLDC (disulfide 1-10; not fully specified) [mupain-1-16],2500 nM

# Molecular target: huPA-H99Y-V41A (human)
# Assay: as above
# Conditions: not given
row,Binder,Ki
1,CPAYS[Phe(4-guanidino)]YLDC (disulfide 1-10) [mupain-1-12],1600 nM
2,CPAYS[Ala(1-amidino-4-piperidyl)]YLAC (disulfide 1-10; not fully specified) [Mupain-1-16 D9A],480 nM
3,CPAYS[Ala(1-amidino-4-piperidyl)]YLDC (disulfide 1-10; not fully specified) [mupain-1-16],1950 nM

# Molecular target: huPA-H99Y-Q192A (human)
# Assay: as above
# Conditions: not given
row,Binder,Ki
1,CPAYS[Phe(4-guanidino)]YLDC (disulfide 1-10) [mupain-1-12],2350 nM
2,CPAYS[Ala(1-amidino-4-piperidyl)]YLAC (disulfide 1-10; not fully specified) [Mupain-1-16 D9A],438 nM
3,CPAYS[Ala(1-amidino-4-piperidyl)]YLDC (disulfide 1-10; not fully specified) [mupain-1-16],2710 nM

# Molecular target: huPA-H99Y-K143A (human)
# Assay: as above
# Conditions: not given
row,Binder,Ki
1,CPAYS[Phe(4-guanidino)]YLDC (disulfide 1-10) [mupain-1-12],2140 nM
2,CPAYS[Ala(1-amidino-4-piperidyl)]YLAC (disulfide 1-10; not fully specified) [Mupain-1-16 D9A],188 nM
3,CPAYS[Ala(1-amidino-4-piperidyl)]YLDC (disulfide 1-10; not fully specified) [mupain-1-16],1130 nM

# Molecular target: T2, huPA-H99Y (full length human …)
# Assay: as above
# Conditions: not given
row,Binder,Ki
1,CPAYS[Ala(1-amidino-4-piperidyl)]YLAC (disulfide 1-10; not fully specified) [Mupain-1-16 D9A],309 nM

# Molecular target: recombinant catalytic domain of huPA-H99Y (residues 159-411) (human, UniProt P00749 179-431)
# Assay: ITC; MicroCal ITC200; peptide injected into 5-50 µM huPA-H99Y catalytic domain; 20 mM sodium phosphate pH 7.4, 140 mM NaCl, 25°C; one-binding-site model
# Conditions: both partners purified
Binder,Kd,dH,stoichiometry N
CPAYS[Phe(4-guanidino)]YLDC (disulfide 1-10) [mupain-1-12],400 nM,-10.5 kcal/mol,0.85
CPAYS[Ala(1-amidino-4-piperidyl)]YLAC (disulfide 1-10; not fully specified) [Mupain-1-16 D9A],134 nM,-11.1 kcal/mol,0.88
CPAYS[Ala(1-amidino-4-piperidyl)]YLDC (disulfide 1-10; not fully specified) [mupain-1-16],380 nM,-7.93 kcal/mol,0.87

# Molecular target: T5, muPA-K41A (murine)
# T5 construct: site directed mutant of full length muPA; numbers count on: chymotrypsin numbering; Two-chain form after plasmin; source: HEK293 6E, transfected; treated with plasmin
# Assay: enzyme inhibition (steady state, chromogenic substrate S-2444); about 2 nM enzyme (purified or conditioned medium of transfected cells) pre-incubated 15 min with varied peptide in HBS (10 mM HEPES pH 7.4, 140 mM NaCl) with 0.1% BSA at 37°C; substrate about KM; fit for competitive inhibition; highest peptide concentration 400 µM
# Conditions: not given
row,Binder,Ki
1,CPAYS[Phe(4-guanidino)]YLDC (disulfide 1-10) [mupain-1-12],1720 nM
2,CPAYS[Ala(1-amidino-4-piperidyl)]YLAC (disulfide 1-10; not fully specified) [Mupain-1-16 D9A],14 nM
3,CPAYS[Ala(1-amidino-4-piperidyl)]YLDC (disulfide 1-10; not fully specified) [mupain-1-16],300 nM

# Molecular target: T1, murine urokinase-type plasminogen …
# Assay: as above
# Conditions: not given
row,Binder,Ki
1,CPAYS[Ala(1-amidino-4-piperidyl)]YLAC (disulfide 1-10; not fully specified) [Mupain-1-16 D9A],76 nM

# Molecular target: T6, muPA-K143A (murine)
# T6 construct: site directed mutant of full length muPA; numbers count on: chymotrypsin numbering; Two-chain form after plasmin; source: HEK293 6E, transfected; treated with plasmin
# Assay: as above
# Conditions: not given
row,Binder,Ki
1,CPAYS[Phe(4-guanidino)]YLDC (disulfide 1-10) [mupain-1-12],1000 nM
2,CPAYS[Ala(1-amidino-4-piperidyl)]YLAC (disulfide 1-10; not fully specified) [Mupain-1-16 D9A],100 nM
3,CPAYS[Ala(1-amidino-4-piperidyl)]YLDC (disulfide 1-10; not fully specified) [mupain-1-16],130 nM

# Molecular target: T7, muPA-Y99A (murine)
# T7 construct: site directed mutant of full length muPA; numbers count on: chymotrypsin numbering; Two-chain form after plasmin; source: HEK293 6E, transfected; treated with plasmin
# Assay: as above
# Conditions: not given
row,Binder,Ki
1,CPAYS[Phe(4-guanidino)]YLDC (disulfide 1-10) [mupain-1-12],5200 nM
2,CPAYS[Ala(1-amidino-4-piperidyl)]YLAC (disulfide 1-10; not fully specified) [Mupain-1-16 D9A],1360 nM
3,CPAYS[Ala(1-amidino-4-piperidyl)]YLDC (disulfide 1-10; not fully specified) [mupain-1-16],1240 nM
